Test results: patent US20150175665A1 (IPSEN PHARMA S A S, published 2015)
[ ]: non-standard residue; d: D form. The star is where a group is joined. Desaminotyrosyl = O=C(CCc1ccc(O)cc1)*; Hyp = O=C(O)[C@@H]1C[C@@H](O)CN1; Pip = O=C(O)[C@@H]1CCCCN1; Ac6c = NC1(C(=O)O)CCCCC1

T1: human recombinant GIP receptor (human, UniProt P48546 22-466)
T1 construct: whole, on cells; Assayed as washed membranes of CHO-K1 cells expressing the receptor; also called hGIP receptor
T1 sequence (looked up): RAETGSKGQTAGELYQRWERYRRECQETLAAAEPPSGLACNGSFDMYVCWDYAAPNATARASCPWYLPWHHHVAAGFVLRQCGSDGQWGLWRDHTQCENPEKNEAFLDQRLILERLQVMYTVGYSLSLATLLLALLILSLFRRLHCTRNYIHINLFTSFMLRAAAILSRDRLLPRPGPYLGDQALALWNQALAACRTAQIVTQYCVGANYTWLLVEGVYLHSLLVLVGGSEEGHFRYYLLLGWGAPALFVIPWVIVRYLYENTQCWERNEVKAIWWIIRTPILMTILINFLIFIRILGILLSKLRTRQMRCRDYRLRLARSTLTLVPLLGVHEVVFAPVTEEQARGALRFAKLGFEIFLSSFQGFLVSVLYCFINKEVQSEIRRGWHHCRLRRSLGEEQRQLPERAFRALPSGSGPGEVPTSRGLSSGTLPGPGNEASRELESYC

B1: [3Cl-Tyr^1, Aib^2, A5c^11, Nle^14, Cys^43(succinimide-N-(CH2)2-C(O)NH-(CH2)3-O-CH2-CH(20K PEG)-CH2-20K PEG)]hGIP(1-43)-NH2 (peptide)
peptide: YXEGTFISDYXIAXDKIHQQDFVNWLLAQKGKKNDWKHNITQC
modifications: 3Cl-Tyr at 1; Aib at 2; A5c at 11; Nle at 14; Cys(succinimide-N-(CH2)2-C(O)NH-(CH2)3-O-CH2-CH(20K PEG)-CH2-20K PEG) at 43; C-terminal amide
notes: Branched PEGylated analogue

biological target: T1, human recombinant GIP receptor; experiment: displacement of [125I]GIP, membranes of CHO-K1 cells expressing human GIP receptor
Protocol: Membranes for in vitro receptor binding assays were prepared by homogenizing the CHO—K1 clonal cells expressing the human recombinant GIP receptor, with a Brinkman Polytron (setting 6, 15 sec), in ice-cold 50 mM Tris-HCl and then subjected to two centrifugations at 39,000 g for 10 minutes, with a resuspension in fresh buffer in between. For the assay, aliquots of the washed membrane preparations were incubated (100 minutes at 25° C. with 0.05 nM [¹²⁵1]GIP (2200 Ci/mmol) in 50 mM Tris-HCl, 0.1 mg/ml bacitracin, and 0.1% BSA. The final assay volume was 0.5 ml. The incubations were terminated by rapid filtration through GF/C filters (pre-soaked in 0.5% polyethylenimine) using a Brandel filtration manifold. Each tube and filter were then washed three times with 5-ml aliquots of ice-cold buffer.
Specific binding was defined as the total radioligand bound minus that bound in the presence of 1000 nM GIP.

Row | Ki [nM] | Binder
1 | 707 | [Desaminotyrosyl]A[Pip]GTF[Ac6c]SDYSIAMDKIHQQDFVNWLLAQKGKKNDWKHNITQ-OH [(4Hppa^1, hPro^3, A6c^7)hGIP(1-42)-OH]
2 | 1.58 | XXEGTFISDYSIAMDKIHQQDFVNWLLAQK (4Hppa at 1; Aib at 2; C-terminal amide) [(4Hppa^1, Aib^2)hGIP(1-30)-NH2]
3 | 5 | XXEGTFXSDYSIAMDKIHQQDFVNWLLAQK (4Hppa at 1; Aib at 2; A5c at 7; C-terminal amide) [(4Hppa^1, Aib^2, A5c^7)hGIP(1-30)-NH2]
4 | 1.03 | YXEGTFISDYXIAMDKIHQQDFVNWLLAQKGKKNDWKHNIXQ (2,6Me-Tyr at 1; Aib at 2; A5c at 11 and 41) [(2,6Me-Tyr^1, Aib^2, A5c^11, 41)hGIP(1-42)-OH]
5 | 4.5 | YXEGTFISDYXIAMDKIHQQDFVNWLLAQKGKKNDWKHNIXQ (Tyr(Me) at 1; Aib at 2; A5c at 11 and 41) [[Tyr(Me)^1, Aib^2, A5c^11, 41]hGIP(1-42)-OH]
6 | 7.05 | XXEGTFISDYXIAMDKIHQQDFVNWLLAQKGKKNDWKHNIXQ (3Thi at 1; Aib at 2; A5c at 11 and 41) [(3Thi^1, Aib^2, A5c^11, 41)hGIP(1-42)-OH]
7 | 11.2 | YXEGTFISDYXIAMDKIHQQDFVNWLLAQKGKKNDWKHNIXQ (3NO2-Tyr at 1; Aib at 2; A5c at 11 and 41) [(3NO2-Tyr^1, Aib^2, A5c^11, 41)hGIP(1-42)-OH]
8 | 8.14 | XXEGTFISDYXIAMDKIHQQDFVNWLLAQKGKKNDWKHNIXQ (4-Pal at 1; Aib at 2; A5c at 11 and 41) [(4-Pal^1, Aib^2, A5c^11, 41)hGIP(1-42)-OH]
9 | 9.75 | XXEGTFISDYXIAMDKIHQQDFVNWLLAQKGKKNDWKHNIXQ (3-Pal at 1; Aib at 2; A5c at 11 and 41) [(3-Pal^1, Aib^2, A5c^11, 41)hGIP(1-42)-OH]
10 | 49 | YGEGTFISDYXIAMDKIHQQDFVNWLLAQKGKKNDWKHNIXQ (pseudopeptide bond Ψ-(CH2-NH) between Tyr 1 and Gly 2; A5c at 11 and 41) [[Tyr^1-Ψ-(CH2-NH)Gly^2, A5c^11, 41]hGIP(1-42)-OH]
11 | 10.4 | YGEGTFISDYXIAMDKIHQQDFVNWLLAQKGKKNDWKHNXTQ (3F-Tyr at 1; A5c at 11 and 40) [(3F-Tyr^1, Gly^2, A5c^11, 40)hGIP(1-42)-OH]
12 | 3.28 | XXEGTFISDYXIAMDKIHQQDFVNWLLAQKGKKNDWKHNIXQ (Taz at 1; Aib at 2; A5c at 11 and 41) [(Taz^1, Aib^2, A5c^11, 41)hGIP(1-42)-OH]
13 | 15.4 | XXEGTFISDYXIAMDKIHQQDFVNWLLAQK (4Hppa at 1; Aib at 2 and 11; C-terminal amide) [(4Hppa^1, Aib^2, 11)hGIP(1-30)-NH2]
14 | 2.95 | XXEGTFISDYSIAXDKIHQQDFVNWLLAQK (4Hppa at 1; Aib at 2; Nle at 14; C-terminal amide) [(4Hppa^1, Aib^2, Nle^14)hGIP(1-30)-NH2]
15 | 251 | [Desaminotyrosyl]A[Hyp]GTF[Ac6c]SDYSIAMDKIHQQDFVNWLLAQKGKKNDWKHNITQ-OH [(4Hppa^1, 4Hyp^3, A6c^7)hGIP(1-42)-OH]
16 | 9.13 | FXEGTFISDYXIAMDKIHQQDFVNWLLAQKGKKNDWKHNITQH (4Me-Phe at 1; Aib at 2; A5c at 11) [(4Me-Phe^1, Aib^2, A5c^11, His^43)hGIP(1-43)-OH]
17 | 3.9 | XXEGTFISDYXIAMDKIHQQDFVNWLLAQKGKKNDWKHNITQH (3MeO-Tyr at 1; Aib at 2; A5c at 11) [(3MeO-Tyr^1, Aib^2, A5c^11, His^43)hGIP(1-43)-OH]
18 | 5.12 | FXEGTFISDYXIAMDKIHQQDFVNWLLAQKGKKNDWKHNITQH (4CN-Phe at 1; Aib at 2; A5c at 11) [(4CN-Phe^1, Aib^2, A5c^11, His^43)hGIP(1-43)-OH]
19 | 0.78 | YXEGTFISDYXIAXDKIHQQDFVNWLLAQKGKKNDWKHNITQH (3Cl-Tyr at 1; Aib at 2; A5c at 11 and 14) [(3Cl-Tyr^1, Aib^2, A5c^11, 14, His^43)hGIP(1-43)-OH]

Row | Ki [nM] | Binder
20 | 9.34 | XXEGTFISDYXIAXDKIHQQDFVNWLLAQKGKKNDWKHNITQH (3MeO-Tyr at 1; Aib at 2; A5c at 11 and 14) [(3MeO-Tyr^1, Aib^2, A5c^11, 14, His^43)hGIP(1-43)-OH]
21 | 0.92 | YXEGTFISDYXIAXDKIHQQDFVNWLLAQKGKKNDWKHNITQH (3Br-Tyr at 1; Aib at 2; A5c at 11 and 14) [(3Br-Tyr^1, Aib^2, A5c^11, 14, His^43)hGIP(1-43)-OH]
22 | 9.42 | XXEGTFISDYXIAMDKIHQQDFVNWLLAQKGKKNDWKHNITQH (hTyr at 1; Aib at 2; A5c at 11) [(hTyr^1, Aib^2, A5c^11, His^43)hGIP(1-43)-OH]
23 | 4.82 | XXEGTFISDYXIAMDKIHQQDFVNWLLAQKGKKNDWKHNITQH (7HO-Tic at 1; Aib at 2; A5c at 11) [(7HO-Tic^1, Aib^2, A5c^11, His^43)hGIP(1-43)-OH]
24 | 8.89 | YAEGTFISDYXIAXDKIHQQDFVNWLLAQKGKKNDWKHNITQH (3Cl-Tyr at 1; D-Ala at 2; A5c at 11; Nle at 14, X stands for a non-natural residue) [(3Cl-Tyr^1, D-Ala^2, A5c^11, Nle^14, His^43)hGIP(1-43)-OH]
25 | 0.76 | YXEGTFISDYXIAXDKIHQQDFVNWLLAQKGKKNDWKHNITQH (3Cl-Tyr at 1; Aib at 2; A5c at 11; Nle at 14) [(3Cl-Tyr^1, Aib^2, A5c^11, Nle^14, His^43)hGIP(1-43)-OH]
26 | 1.09 | YXEGTFISDYXIAXDKIHQQDFVNWLLAQKGKKNDWKHNITQH (3Br-Tyr at 1; Aib at 2; A5c at 11; Nle at 14) [(3Br-Tyr^1, Aib^2, A5c^11, Nle^14, His^43)hGIP(1-43)-OH]
27 | 50.2 | YXEGTFISDYXIAXDKIHQQDFVNWLLAQKGKKNDWKHNITQH (2,6Me-Tyr at 1; Aib at 2; A5c at 11 and 14) [(2,6Me-Tyr^1, Aib^2, A5c^11, 14, His^43)hGIP(1-43)-OH]
28 | 5.06 | YAEGTFISDYXIAXDKIHQQDFVNWLLAQKGKKNDWKHNITQH (3Cl-Tyr at 1; D-Ala at 2; A5c at 11 and 14, X stands for a non-natural residue) [(3Cl-Tyr^1, D-Ala^2, A5c^11, 14, His^43)hGIP(1-43)-OH]
29 | 39 | YXEGTFISDYXIAXDKIHQQDFVNWLLAQKGKKNDWKHNITQH (2,6Me-Tyr at 1; Aib at 2; A5c at 11; Nle at 14) [(2,6Me-Tyr^1, Aib^2, A5c^11, Nle^14, His^43)hGIP(1-43)-OH]
30 | 6.4 | XXEGTFISDYXIAXDKIHQQDFVNWLLAQKGKKNDWKHNIXQH (3MeO-Tyr at 1; Aib at 2; A5c at 11, 14 and 41) [(3MeO-Tyr^1, Aib^2, A5c^11, 14, 41-His^43)hGIP(1-43)-OH]
31 | 35 | YXEGTFISDYXIAMDKIHQQDFVNWLLAQKGKKNDWKHNITQH (2,6Me-Tyr at 1; Aib at 2; A5c at 11) [(2,6Me-Tyr^1, Aib^2, A5c^11, His^43)hGIP(1-43)-OH]
32 | 9.13 | YAEGTFISDYXIAXDKIHQQDFVNWLLAQKGKKNDWKHNITQC (3Cl-Tyr at 1; D-Ala at 2; A5c at 11; Nle at 14; Cys(succinimide) at 43, X stands for a non-natural residue) [[3Cl-Tyr^1, D-Ala^2, A5c^11, Nle^14, Cys^43(succinimide)]hGIP(1-43)-OH]
33 | 6.64 | YAEGTFISDYXIAXDKIHQQDFVNWLLAQKGKKNDWKHNITQK (3Cl-Tyr at 1; D-Ala at 2; A5c at 11; Nle at 14; Lys(N-C(O)-(CH2)10-CH3) at 43, X stands for a non-natural residue) [[3Cl-Tyr^1, D-Ala^2, A5c^11, Nle^14, Lys^43(N-C(O)-(CH2)10-CH3)]hGIP(1-43)-OH]
34 | 1.41 | YAEGTFISDYXIAXDKIHQQDFVNWLLAQKGKKNDWKHNITQC (3Cl-Tyr at 1; D-Ala at 2; A5c at 11 and 14; Cys(succinimide) at 43, X stands for a non-natural residue) [[3Cl-Tyr^1, D-Ala^2, A5c^11, 14, Cys^43(succinimide)]hGIP(1-43)-OH]
35 | 42.4 | B1
36 | 0.83 | YXEGTFISDYXIAXDKIHQQDFVNWLLAQKGKKNDWKHNITQC (3Cl-Tyr at 1; Aib at 2; A5c at 11; Nle at 14) [(3Cl-Tyr^1, Aib^2, A5c^11, Nle^14, Cys^43)hGIP(1-43)-OH]
37 | 9.06 | YAEGTFISDYXIAXDKIHQQDFVNWLLAQKGKKNDWKHNITQK (3Cl-Tyr at 1; D-Ala at 2; A5c at 11 and 14; Lys(N-C(O)-(CH2)10-CH3) at 43, X stands for a non-natural residue) [[3Cl-Tyr^1, D-Ala^2, A5c^11, 14, Lys^43(N-C(O)-(CH2)10-CH3)]hGIP(1-43)-OH]
